The record followed here is patent US20200024330A1.

Broadly, the IC50 is the concentration that inhibits the measured activity by half.

Common to all, as to assay: cell-based or functional assay
Assay [1] addresses HIV-1 93IN905 envelope glycoprotein (Env) on pseudovirus (HIV-1).
The target of assay [2] is HIV-1 IAVI-C3 envelope protein (Env) on pseudovirus (HIV-1).
Assay [3] deals with HIV-1 Env of pseudovirus 93TH305, clade B (HIV-1).
Assay [4] concerns the target HIV-1 APV-6 envelope protein (Env) on pseudovirus (HIV-1).
Assay [5] deals with HIV-1 MGRM-A-011 envelope glycoprotein (Env) (HIV-1).
Assay [6] deals with HIV-1 92RW009 envelope glycoprotein (Env) (HIV-1).
Assay [7] deals with HIV-1 93UG077 envelope glycoprotein (Env) on pseudovirus (HIV-1).
Assay [8] concerns the target HIV-1 MGRM-F1-017 Env (pseudovirus) (HIV-1).
Assay [9] addresses HIV-1 Env of pseudovirus THR0.18 (Acute), clade B (HIV-1).
Assay [10] addresses HIV-1 Env of pseudovirus 92BR020, clade B (HIV-1).
The target of assay [11] is HIV-1 Env of isolate MGRM-D-002 (clade D) (HIV-1).
Assay [12] deals with HIV-1 MGRM-F1-023 Env (pseudovirus) (HIV-1).
For assay [13], the target named is HIV-1 92UG031 envelope glycoprotein (Env) (HIV-1).
Assay [14] has as its target HIV-1 98IN022 envelope glycoprotein (Env) on pseudovirus (HIV-1).
For assay [15], the target named is HIV-1 CMU02 envelope protein (Env) on pseudovirus (HIV-1).
In assay [16] the target is HIV-1 MGRM-C-024 Env (HIV-1).
The target of assay [17] is HIV-1 MGRM-C-002 Env (HIV-1).
The target in assay [18] is HIV-1 Env of isolate MGRM-D-008 (clade D) (HIV-1).

Some results are limits rather than exact numbers.

Sequence of 1443_C16 (PG16) (TCN-116) (antibody) (VH): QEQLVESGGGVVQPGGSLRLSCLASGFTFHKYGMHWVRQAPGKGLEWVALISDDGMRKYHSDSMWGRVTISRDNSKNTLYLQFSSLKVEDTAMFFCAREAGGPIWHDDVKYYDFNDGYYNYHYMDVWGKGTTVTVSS
Sequence of 1443_C16 (PG16) (TCN-116) (antibody) (VL): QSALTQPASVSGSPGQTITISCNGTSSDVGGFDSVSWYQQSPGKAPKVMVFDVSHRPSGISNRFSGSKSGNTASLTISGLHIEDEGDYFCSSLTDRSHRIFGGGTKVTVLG

Turning to 4E10 (antibody), the results for the IC90 (pseudovirus neutralization) in [1] and in [7] were 12.8 µg/mL and > 50 µg/mL, respectively. For the same substance, the neutralization IC50 in assay [2] is 5 µg/mL; in assay [4], 0.4 µg/mL; in [15], 0.59 µg/mL. Besides, the IC50 (µg/ml), pseudovirus neutralization in assay [3] was 12.3 µg/mL; in [5] it was 2.88 µg/mL; in assay [6], > 50 µg/mL; in assay [8], 4.92 µg/mL; in [9], 4.68 µg/mL; in assay [10], > 50 µg/mL. Also, the IC50 (µg/ml), pseudovirus neutralization in [11] stood at 9.44 µg/mL; in [12], 0.44 µg/mL; in assay [13], 4.94 µg/mL; in assay [14], 0.53 µg/mL; in [18] it was 42.9 µg/mL. The IC50 in assay [16] was found to be 22.6 µg/mL; in assay [17], 18.2 µg/mL.

1443_C16 (PG16) (TCN-116) (antibody): the IC90 (pseudovirus neutralization) in assay [1] and in [7] was > 50 µg/mL in each case. Besides, the neutralization IC50 in assay [2] is 14.8 µg/mL; in assay [4] it was 0.08 µg/mL; in assay [15] it was > 50 µg/mL. Moreover, the IC50 (µg/ml), pseudovirus neutralization in [3] was 19.3 µg/mL; in assay [5], 0.24 µg/mL; in [6] it was 0.11 µg/mL; in assay [8], > 50 µg/mL; in assay [9] it was 1.34 µg/mL; in [10] it was > 50 µg/mL. Also, the IC50 (µg/ml), pseudovirus neutralization in [11] is 0.01 µg/mL; in assay [12], > 50 µg/mL; in assay [13] it was 0.43 µg/mL; in assay [14], 0.003 µg/mL; in [18] it was > 50 µg/mL. The IC50 in assay [16] turned out to be 0.04 µg/mL; in [17], 28.3 µg/mL.

Regarding b12 (antibody), the IC90 (pseudovirus neutralization) in assay [1] and in assay [7] was > 50 µg/mL in each case. For the same substance, the neutralization IC50 was 5 µg/mL in assay [2], > 25 µg/mL in assay [4] and 4.25 µg/mL in [15]. Further, the IC50 (µg/ml), pseudovirus neutralization in [3] is 4.17 µg/mL; in assay [5], 4.01 µg/mL; in [6], > 50 µg/mL; in assay [8], > 50 µg/mL; in [9] it was 3.62 µg/mL; in assay [10], > 50 µg/mL. Moreover, the IC50 (µg/ml), pseudovirus neutralization in [11] is > 50 µg/mL; in assay [12], > 50 µg/mL; in assay [13], > 50 µg/mL; in [14] it was 0.42 µg/mL; in assay [18], > 50 µg/mL. In addition, the IC50 in assay [16] and in assay [17] was > 50 µg/mL throughout.
